The target of this assay is GenB1 (aminotransferase involved in C6'-amination, Micromonospora echinospora) (Micromonospora echinospora). Kind of assay: crystal structure.

In general, stoichiometry N refers to the number of molecules, sites or subunits per partner or assembly.

Turning to “GenB1 (aminotransferase involved in C6'-amination, Micromonospora echinospora) (enzyme)”, the stoichiometry N stood at 2.

The values are drawn from publication PMC6488028.
